Measured values taken from the Human Domainome abundance scans (Beltran et al. 2025).

B1: Lysine-specific demethylase 2B, residues 656 to 722; numbered along this chain, Q8NHM5 (parent)
chain: LPHTAVCLVCGEAGKEDTVEEEEGKFNLMLMECSICNEIIHPGCLKIKESEGVVNDELPNCWECPKC
B2: Dystrobrevin alpha, residues 235 to 294; numbered along this chain, Q9Y4J8 (parent)
chain: ENVFHPVECSYCHSESMMGFRYRCQQCHNYQLCQDCFWRGHAGGSHSNQHQMKEYTSWKS

Variants of: B1
Test: abundance fitness (aPCA) (normalised: wild type 0, dead -1); higher = more abundant; growth selection in yeast, the domain comes from the species named
Details: Homo sapiens

Abundance fitness of substitutions, site by site:
K66: A -0.425, D -0.064, Q -0.551, T -0.079, V -0.173, M -0.434, E -0.058, S -0.284, P -0.049, L -0.705, G -0.263, W -0.846, R -0.145, C -0.819
C64: R -0.888, G -0.889, Y -0.804, P -0.684, S -0.797, M -0.923, I -0.778, Q -0.662, F -0.719, T -0.952, L -0.935, E -0.718, K -0.749, D -0.85, H 0.218, W -0.775, A -1.05, V -0.95
E63: P -0.968, M -0.006, R -0.031, T 0.102, L -0.074, K 0.146, V 0.039, G -0.252, A 0.017, S -0.223, N -0.246, Q -0.148, Y -0.263, F -0.407, C -0.073, W -0.386
C67: A -0.676, W -1.43, Y -1.08, K -0.667, R -1.26, H -0.28, P -0.867, T -0.462, G -0.992, E -0.596, L -1.03
C61: W -0.171, T 0.248, R 0.042, Y 0.073, S 0.018
P65: L -0.606, R -0.364, V -0.503, S -0.177, Q -0.454, D -0.547, A -0.133, E -0.148, I -0.899, W -0.432, F -0.401, C -0.384, H -0.289, T -0.634
W62: Y -0.296, H -0.838, K -0.339, F -0.014, V -0.465, M -0.425, T -0.426, S -0.551, I -1, C -0.858, N -0.541, R -0.574, Q -0.601, P -0.17, G -0.789, A -0.509, E -0.439, L -0.391

Variants of: B2
Test: as above
Details: Homo sapiens

Abundance fitness, by site and new letter:
E8: S -0.124, V -0.329, M -0.35, D -0.206, K -0.214, A -0.365, T -0.234, F -0.13, P -0.001, H -0.049, N -0.17, G 0.051, Y -0.157, I -0.104, L -0.233, W -0.39, Q -0.155, R -0.222
V3: L 0.096, I -0.006, M 0.067, N 0.149, A -0.075, E 0.053, W -0.34, S 0.134, Q 0.106, R 0.011, D 0.011, G -0.217, F -0.248, K 0.213, Y 0.018, P 0.083, C 0.118
H5: I 0.321, C -0.024, N 0.259, P -0.102, M -0.114, A -0.195, F -0.201, G -0.127, Q -0.195, L -0.125, K -0.028, R -0.176, W -0.143, E 0.145
V7: Y -0.161, N 0.154, M -0.08, P -0.009, H -0.055, T -0.048, K -0.086, S 0, F -0.428, I -0.023, E 0.012, D -0.012, C 0.004, A 0.063, W -0.072, R -0.036, L -0.045, G -0.085
E15: H 0.078, G -0.105, C -0.171, K -0.022, D 0.195, I 0.018, L -0.087, A -0.041, F -0.133
C12: M -1.11, S -1.17, L -1.22, Q -1, H -0.549, G -0.762, W -1.27, E -0.997, I -1.1, F -1.23, P -1.29, A -0.883, V -1.1, D -0.939, R -0.768, K -0.943, T -0.868, N -0.746
F4: S -0.14, P -0.107, C 0.009, Y 0.084, I 0.19, R -0.081, T 0.06, Q -0.152, G -0.014, L -0.039, H -0.059, A -0.049, V -0.01, N 0.037, M -0.043, W -0.224, D 0.108
N2: F -0.121, E 0.032, W -0.285, D -0.599, C -0.33, Q 0.019, V -0.129, K -0.007, M 0.092, Y -0.035, A 0.066, L -0.158, R -0.109, T 0.049, P -0.09, H -0.394
H13: M -0.109, R -0.061, A -0.107, G -0.027, W -0.584, V -0.457, S -0.096, I -0.406, K -0.027, E -0.23, P -0.677, L -0.176, N -0.169, C -0.176, Q -0.172, D -0.474, F -0.243, T -0.076, Y -0.165
S10: K -0.592, M -0.298, Q -0.453, I -0.588, P -0.421, T -0.162, Y -0.343, F -0.351, N -0.183, V -0.746, C -0.018, L -0.693, G -0.443, E -0.394, R -0.476
Y11: R -0.37, N -0.256, S -0.219, T -0.201, W -0.155, M -0.055, P -0.658, Q -0.223, I -0.191, D -0.313, F 0.039, A -0.208, G -0.099, C -0.247, V -0.193
S14: G -0.11, D -0.13, T -0.026, C -0.086, H -0.081, P -0.679, Q -0.16, L -0.153, Y -0.324, V 0.088, W -0.416, F -0.622, K -0.043, R 0.042, A -0.051, M -0.149, N -0.003, E -0.074
P6: M -0.071, W -0.127, D 0.079, R -0.029, Q -0.191, G -0.063, V -0.089, L -0.176, E -0.045, N 0.049, A 0.07, C -0.137, I -0.039, F -0.091, Y -0.218
E1: Y 0.014, M -0.377, R -0.462, A -0.257, D 0.028, V -0.211, G -0.336, S -0.183, P -0.076, T -0.166, C 0.297, K -0.248
C9: W -1.23, F -1.25, E -0.908, G -0.93, D -0.904, I -1.19, L -1.22, N -1.06, H -1.26, P -0.969, S -1.01, A -1.12, K -0.901, V -1.1, M -1.31, Q -1.05, Y -1.26
